The values below come from article PMC11499256, “Two-factor authentication underpins the precision of the piRNA pathway” (Nature, 2024).

The target in assay [1] is T1, His-tagged SPIN1 (49–262) (mouse, UniProt Q61142 49-262).
T1 construct: mouse SPIN1 (Q61142), amino acids 49–262; 'Purified as above' would include cleavage of the tag, yet the protein is called His-tagged and detected by anti-His; source: E. coli BL21 (DE3), purified
The experiment in a line: SEC; SPIN1–SPOCD1 fragment 1b complex purified on an S200 increase column before the nucleosome pull-down. Particulars: both partners purified. (Size exclusion chromatography separates by hydrodynamic size, large species first.)

The target of assay [2] is T2, mouse SPIN1 (amino acids 49–262), recombinant, His tag cleaved (mouse, UniProt Q61142 49-262).
T2 construct: mouse SPIN1 (Q61142), amino acids 49–262; The SPIN1 construct was cleaved with GST–3C protease overnight; also called recombinant SPIN1; source: E. coli BL21 (DE3), purified (His-tag column, 3C cleavage, ion exchange, SEC)
T2 sequence (Q61142 49-262): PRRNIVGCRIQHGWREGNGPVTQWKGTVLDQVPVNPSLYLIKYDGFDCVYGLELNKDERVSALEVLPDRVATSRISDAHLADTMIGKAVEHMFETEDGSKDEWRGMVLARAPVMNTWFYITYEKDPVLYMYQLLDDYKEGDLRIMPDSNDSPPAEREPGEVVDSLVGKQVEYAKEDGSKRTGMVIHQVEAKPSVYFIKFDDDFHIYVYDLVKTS
The experiment in a line: pull-down; co-precipitation of recombinant proteins, Coomassie gel, n = 3. Particulars: both partners purified.

T1 sequence (Q61142 49-262): as above

B1: His-tagged SPOCD1 fragment 1b (domain or fragment, mouse, UniProt B1ASB6 203-409, looked up)
chain: VTQEPLQSPALYPEVLTEDSTDQQEVQPAFVVGSPGTPPDPVGPEDKAQSGSRMELEQGLSAPANSCASSPEPLGGLDGAPLEQRRPTHVKKRPWTSPDDSSQDHAEGASKKDFPRLEARVPRGVKTVYYVYTGSGIRLVGAASSSQPGQIEPLEELDTNSARRKRRPTTAHPTPCQSDPSETENAEPHQQRAEDPGEQGMTPLDAG
notes: source: E. coli BL21 (DE3), purified
With B1, the binding result in assay [1] was “binds”.

B2: mouse GST–SPOCD1-F1b (amino acids 203–409), recombinant (domain or fragment, UniProt B1ASB6 203-409, looked up)
chain: B1 chain
notes: pET-based backbone; also called GST–F1b; SPOCD1 fragment 1b; source: E. coli BL21 (DE3), purified (glutathione sepharose, dialysis)
As for B2, the binding result in assay [2] is given as “binds”.
